Where a SMILES comes first, the peptide text is derived from it. Where no end group is shown, it is not given here. [ ]: non-standard residue; d: D form. NMeF = CN[C@@H](Cc1ccccc1)C(=O)O; Nle = CCCC[C@H](N)C(=O)O

Here are results for 4 molecules from patent US20100168443A1, “Ethoid-Containing Compounds, Methods for Preparing Ethoid-Containing Compounds, and Methods of Use” (UNIVERSITY OF VIRGINIA PATENT FOUNDATION, priority 2006, published 2010).

Data set [1] has as its target T1, Tachykinin NK2 HUMAN receptor (Homo sapiens, UniProt P21452).
T1 construct: host or cells: CHO
T1 sequence (P21452 1-398): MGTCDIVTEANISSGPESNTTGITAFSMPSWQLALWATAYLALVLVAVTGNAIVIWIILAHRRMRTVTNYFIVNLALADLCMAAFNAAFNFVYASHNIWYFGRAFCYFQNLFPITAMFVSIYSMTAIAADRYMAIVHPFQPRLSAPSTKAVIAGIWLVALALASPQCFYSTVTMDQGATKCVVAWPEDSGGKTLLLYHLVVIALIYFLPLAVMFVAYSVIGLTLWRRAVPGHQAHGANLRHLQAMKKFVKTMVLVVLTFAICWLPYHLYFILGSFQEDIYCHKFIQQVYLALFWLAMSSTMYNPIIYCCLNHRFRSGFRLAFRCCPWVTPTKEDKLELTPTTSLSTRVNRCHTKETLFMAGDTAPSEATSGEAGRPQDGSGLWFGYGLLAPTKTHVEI
Particulars: radioligand; Human recombinant (CHO cells); cited from earlier work.

Data set [2] has as its target human GnRH recombinant receptor (AequoScreen cell line, FAST-0160A) (human) (UniProt P30968). The data set can be described thus: cell-based or functional assay.
For the next data set, the target named is T2, DPP-4 peptidase (Homo sapiens, UniProt P27487).
T2 construct: purchased Sigma-Aldrich
Nature of the data set: DPP4 enzyme stability assay. The format is in vitro ADME. Conditions: 1 mU DPP-4, tris buffer pH 7.5, 37° C, up to 8 hours incubation.

Data set [3] has as its target T3, Tachykinin NK3 human receptor (human recombinant, CHO cells) (human, UniProt P29371 1-465).
T3 construct: whole, on cells
T3 sequence (looked up): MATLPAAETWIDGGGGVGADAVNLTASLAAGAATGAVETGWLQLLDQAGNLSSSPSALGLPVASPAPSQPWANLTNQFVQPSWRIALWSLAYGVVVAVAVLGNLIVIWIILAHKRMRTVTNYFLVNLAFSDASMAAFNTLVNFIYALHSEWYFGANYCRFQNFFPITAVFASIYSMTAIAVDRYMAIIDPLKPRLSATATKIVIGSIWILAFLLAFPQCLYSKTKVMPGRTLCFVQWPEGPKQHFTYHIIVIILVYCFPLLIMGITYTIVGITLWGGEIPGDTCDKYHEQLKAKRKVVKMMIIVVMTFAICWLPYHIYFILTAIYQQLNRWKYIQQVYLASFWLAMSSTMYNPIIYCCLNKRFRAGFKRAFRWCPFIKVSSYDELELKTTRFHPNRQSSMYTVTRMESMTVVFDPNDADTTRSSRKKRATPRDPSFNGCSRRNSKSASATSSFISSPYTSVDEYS
Nature of the data set: radioligand binding, human recombinant NK3 in CHO cells (MDS Pharma assay #255710; printed as assay parameter).

human GnRH recombinant receptor (AequoScreen cell line, FAST-0160A) (human), sequence (P30968 whole entry): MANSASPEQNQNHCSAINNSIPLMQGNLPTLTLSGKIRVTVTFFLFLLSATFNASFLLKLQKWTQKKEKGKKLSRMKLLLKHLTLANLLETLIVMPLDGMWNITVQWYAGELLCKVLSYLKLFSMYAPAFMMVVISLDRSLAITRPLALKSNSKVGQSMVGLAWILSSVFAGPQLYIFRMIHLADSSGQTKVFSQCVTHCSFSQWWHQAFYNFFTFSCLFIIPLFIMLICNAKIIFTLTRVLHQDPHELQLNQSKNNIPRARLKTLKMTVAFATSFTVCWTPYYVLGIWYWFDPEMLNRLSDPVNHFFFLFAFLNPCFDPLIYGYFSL
T2 sequence (P27487 whole entry): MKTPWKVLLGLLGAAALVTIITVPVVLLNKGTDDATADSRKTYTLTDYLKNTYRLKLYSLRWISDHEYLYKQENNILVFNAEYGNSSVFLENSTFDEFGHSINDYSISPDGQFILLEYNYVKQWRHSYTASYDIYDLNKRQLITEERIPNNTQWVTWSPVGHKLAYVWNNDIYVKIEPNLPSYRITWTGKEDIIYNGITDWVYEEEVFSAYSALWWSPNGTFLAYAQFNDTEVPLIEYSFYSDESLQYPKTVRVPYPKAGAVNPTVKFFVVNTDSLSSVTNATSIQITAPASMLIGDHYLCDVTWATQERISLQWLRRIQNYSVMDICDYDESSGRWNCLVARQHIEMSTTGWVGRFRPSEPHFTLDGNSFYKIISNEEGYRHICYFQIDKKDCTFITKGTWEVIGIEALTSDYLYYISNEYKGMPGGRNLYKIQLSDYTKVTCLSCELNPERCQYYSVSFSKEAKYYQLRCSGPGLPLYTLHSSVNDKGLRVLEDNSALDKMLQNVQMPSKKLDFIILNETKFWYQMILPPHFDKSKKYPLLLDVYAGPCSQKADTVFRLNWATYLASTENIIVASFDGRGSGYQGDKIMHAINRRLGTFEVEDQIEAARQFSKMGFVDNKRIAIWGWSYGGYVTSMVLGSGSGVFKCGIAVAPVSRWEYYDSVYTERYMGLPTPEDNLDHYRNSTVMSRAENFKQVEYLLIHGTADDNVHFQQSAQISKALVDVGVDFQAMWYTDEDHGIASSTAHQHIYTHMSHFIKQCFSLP

As usually defined, the Kd is a measure of binding affinity in units of concentration. Consider `CC(=O)NC1(c2ccccc2)CCN(CC[C@H](CN(C)C(=O)c2ccccc2)c2ccc(Cl)c(Cl)c2)CC1` [[3H] SR-48968], for which the Kd in data set [1] is 0.25 nM. For the molecule [D-Trp6] LHRH (Bachem, H4075) (peptide), in data set [2], the EC50, aequorin luminescence agonist assay (AequoScreen cells) worked out at 0.14 nM and the EC50, historical value of the same assay amounted to 0.38 nM. Take `CCCC[C@H](NC(=O)[C@@H](NC(=O)[C@H](CC(=O)O)NC(=O)[C@H](CCC(N)=O)NC(=O)[C@H](CC(C)C)NC(=O)[C@H](CC(C)C)NC(=O)[C@H](CCCCN)NC(=O)[C@H](CCCNC(=N)N)NC(=O)[C@H](C)NC(=O)[C@H](CO)NC(=O)[C@H](CC(C)C)NC(=O)[C@H](CCC(N)=O)NC(=O)CNC(=O)[C@H](CC(C)C)NC(=O)[C@@H](NC(=O)[C@H](CCCCN)NC(=O)[C@H](CCCNC(=N)N)NC(=O)[C@H](Cc1ccc(O)cc1)NC(=O)[C@H](C)NC(=O)[C@H](C)NC(=O)[C@@H](NC(=O)[C@H](Cc1ccccc1)NC(=O)[C@@H](NC(=O)[C@H](C)NC(=O)[C@H](CC(=O)O)NC(=O)[C@H](C)NC(=O)[C@@H](N)Cc1ccc(O)cc1)[C@@H](C)CC)[C@@H](C)O)C(C)C)[C@@H](C)CC)C(=O)N[C@@H](CO)C(=O)N[C@@H](CCCNC(=N)N)C(N)=O` [peptide control] (H-YADAIFTAAYRKVLGQLSARKLLQDI[Nle]SR-NH2): at DPP-4 peptidase, the “DPP-4 peptidase resistance (degradation by HPLC-MS)” value is “substantially cleaved”.

B1: [125I] MePhe7-Neurokinin B (peptide)
peptide: DMHDFF[NMeF]GLM-NH2
modifications: ends and bridges not checked; also: 125I label, position not given here
For B1, the Kd in data set [3] is 0.28 nM.
